Experimental findings from patent publication US20180171024A1 are described below.

Assay [1] addresses HLA-A2 on cells (tumor cell lines, normal primary cells, PBMCs) (human). In words: flow cytometry, colonic smooth muscle cells #2940, 10 µg/ml.
Assay [2] concerns the target HLA-A2 on HLA-A2+ cells that do not express WT1 (tumor cell lines, normal primary cells). In words: flow cytometry on SKMEL-5 melanoma cells (WT1 mRNA -). On the technique in general: In flow cytometry, cells or beads pass a laser one at a time.
The target of assay [3] is HLA-A2/DUSP5 on T2 cells (human). Description: flow cytometry, T2 cells loaded with DUSP5 peptide.
For assay [4], the target named is HLA-A2 on HLA-A2+ cells that do not express WT1 (tumor cell lines, normal primary cells). In words: flow cytometry on A498 cells (WT1 mRNA -).
The target of assay [5] is HLA-A2/WT1-S11 on T2 cells (human). Description: flow cytometry, peptide-loaded T2 cells (10^-4-10^-5 M).
The target in assay [6] is HLA-A2/WT1-S6 on T2 cells (human). The description is as above.
For assay [7], the target named is HLA-A2/WT1-S10 on T2 cells (human). The assay is described as above.
Assay [8] has as its target HLA-A2/WT1-S7 on T2 cells (human). The description is as above.
Assay [9] addresses HLA-A2/WT1-S22 on T2 cells (human). The description is as above.
Assay [10] has as its target HLA-A2/WT1-S16 on T2 cells (human). Described as above.
Assay [11] deals with HLA-A2/MART1(26) on T2 cells (human). Description: flow cytometry, T2 cells loaded with MART1 peptide.
Assay [12] addresses HLA-A2/TyrD-S14 on T2 cells (human). In words: flow cytometry, T2 cells loaded with TyrD S14 [..], 10 µg/ml.
The target in assay [13] is HLA-A2 on cells (tumor cell lines, normal primary cells, PBMCs) (human). Description: flow cytometry, PBMCs #IB, 10 µg/ml.
The target in assay [14] is HLA-A2/Tyrosinase369-377 complex on cells (human). Description: flow cytometry, T2 cells loaded with TyrD [..], 10 µg/ml.
Assay [15] addresses HLA-A2 on cells (tumor cell lines, normal primary cells, PBMCs) (human). Description: flow cytometry, renal epithelial cells 4120, 10 µg/ml.
Assay [16] shares this target. In words: flow cytometry, CCRF-SB cells, 10 µg/ml.

BB7.2 (antibody): the MFI amounted to 744 in assay [1]; 170 in [2]; 2470 in assay [3]; 350 in [4]; 449 in assay [5]; 500 in assay [6]. The MFI in assay [7] is 450; in assay [8], 592; in assay [9] it was 376; in [10], 379; in assay [11] it was 2500; in assay [13], 552. Moreover, the MFI in assay [15] amounted to 889; in assay [16], 902. For the same substance, the results for the MFI relative to background in assay [12] and in [14] were 565 and 561, respectively.
